Measured values published in patent US20160272683A1 (Novo Nordisk, published 2016).
Numbered stars: 1 amine (or outer) side, 2 acyl side, 3 side chain; on linkers, the order of the positions; unused ones are H or OH. * marks the point of attachment. C20 diacid = O=C(O)CCCCCCCCCCCCCCCCCCC(=O)*; C18 diacid = O=C(O)CCCCCCCCCCCCCCCCC(=O)*; γGlu = O=C(O)[C@H](CCC(=O)[*:2])N[*:1]; AEEA = NCCOCCOCC(=O)O

T1: human calcitonin receptor on BHK570/CRE-luc cells (human, UniProt P30988 25-474)
T1 sequence (looked up): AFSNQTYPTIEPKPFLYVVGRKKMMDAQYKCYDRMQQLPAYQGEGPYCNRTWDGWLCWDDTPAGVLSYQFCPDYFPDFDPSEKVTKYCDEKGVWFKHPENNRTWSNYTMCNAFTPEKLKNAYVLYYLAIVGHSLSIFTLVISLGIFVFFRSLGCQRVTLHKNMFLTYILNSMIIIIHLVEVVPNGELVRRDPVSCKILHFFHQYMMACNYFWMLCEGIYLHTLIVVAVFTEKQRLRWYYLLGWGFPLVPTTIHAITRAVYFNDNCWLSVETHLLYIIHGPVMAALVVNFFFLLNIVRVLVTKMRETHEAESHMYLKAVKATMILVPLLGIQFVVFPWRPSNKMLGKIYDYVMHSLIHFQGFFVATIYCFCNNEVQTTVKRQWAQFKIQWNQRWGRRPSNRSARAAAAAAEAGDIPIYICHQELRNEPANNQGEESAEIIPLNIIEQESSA

T2: human amylin 3(a) receptor (human calcitonin receptor co-expressed with RAMP-3) on BHK570/CRE-luc cells (human, UniProt P30988 25-474; O60896 24-148)
T2 sequence (looked up) 1: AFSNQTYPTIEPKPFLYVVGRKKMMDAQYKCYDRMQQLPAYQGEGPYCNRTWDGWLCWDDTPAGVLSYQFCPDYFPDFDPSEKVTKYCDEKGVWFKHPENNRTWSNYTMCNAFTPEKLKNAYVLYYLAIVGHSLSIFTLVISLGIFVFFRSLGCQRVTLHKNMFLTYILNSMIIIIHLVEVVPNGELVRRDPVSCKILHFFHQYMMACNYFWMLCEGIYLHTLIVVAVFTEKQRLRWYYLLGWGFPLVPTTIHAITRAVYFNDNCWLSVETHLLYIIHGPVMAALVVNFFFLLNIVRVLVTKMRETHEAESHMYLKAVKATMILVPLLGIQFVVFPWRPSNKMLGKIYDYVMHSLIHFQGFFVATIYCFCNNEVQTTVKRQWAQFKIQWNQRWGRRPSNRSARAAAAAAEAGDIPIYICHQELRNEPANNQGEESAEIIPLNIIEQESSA
T2 sequence (looked up) 2: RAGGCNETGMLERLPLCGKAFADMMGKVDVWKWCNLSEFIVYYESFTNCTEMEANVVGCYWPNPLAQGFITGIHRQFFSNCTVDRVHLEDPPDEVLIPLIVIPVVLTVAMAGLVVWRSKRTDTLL


Experiments:
[1] = target: T1, human calcitonin receptor on …; experiment: cell-based or functional assay
[2] = target: T2, human amylin 3(a) receptor (human …); experiment: cell-based or functional assay

| hCTR funct. EC50 (pM), tested with HSA [1] [pM] | hAmylin-R funct. EC50 (pM), tested with HSA [2] [pM] | Binder |
| --- | --- | --- |
| 92 | 122 | {C20 diacid-γGlu}-ASGLSTATLGRLSQELHELQTYPRTETGSGTY-NH2 [[N-terminal(C20 diacid-gGlu), des1, 4G, 9T, 15Q, 21Q, 23Y, 30S, 31G, 32T, 33Y]mimylin] |
| 77 | 173 | {C20 diacid-γGlu}-ASGLSTATLGRLSQELHELQTYPPTETGSGTY-NH2 (SMILES CC(C)C[C@H](NC(=O)CNC(=O)[C@H](CO)NC(=O)[C@H](C)NC(=O)CC[C@H](NC(=O)CCCCCCCCCCCCCCCCCCC(=O)O)C(=O)O)C(=O)N[C@@H](CO)C(=O)N[C@H](C(=O)N[C@@H](C)C(=O)N[C@H](C(=O)N[C@@H](CC(C)C)C(=O)NCC(=O)N[C@@H](CCCNC(=N)N)C(=O)N[C@@H](CC(C)C)C(=O)N[C@@H](CO)C(=O)N[C@@H](CCC(N)=O)C(=O)N[C@@H](CCC(=O)O)C(=O)N[C@@H](CC(C)C)C(=O)N[C@@H](Cc1c[nH]cn1)C(=O)N[C@@H](CCC(=O)O)C(=O)N[C@@H](CC(C)C)C(=O)N[C@@H](CCC(N)=O)C(=O)N[C@H](C(=O)N[C@@H](Cc1ccc(O)cc1)C(=O)N1CCC[C@H]1C(=O)N1CCC[C@H]1C(=O)N[C@H](C(=O)N[C@@H](CCC(=O)O)C(=O)N[C@H](C(=O)NCC(=O)N[C@@H](CO)C(=O)NCC(=O)N[C@H](C(=O)N[C@@H](Cc1ccc(O)cc1)C(N)=O)[C@@H](C)O)[C@@H](C)O)[C@@H](C)O)[C@@H](C)O)[C@@H](C)O)[C@@H](C)O) [[N-terminal(C20 diacid-gGlu), des1, 4G, 9T, 15Q, 21Q, 23Y, 25P, 30S, 31G, 32T, 33Y]mimylin] |
| 72 | 152 | {C20 diacid-γGlu}-ASGLSTAVLGRLSQELHELQTYPPTETGSQTY-NH2 (SMILES CC(C)C[C@H](NC(=O)CNC(=O)[C@H](CO)NC(=O)[C@H](C)NC(=O)CC[C@H](NC(=O)CCCCCCCCCCCCCCCCCCC(=O)O)C(=O)O)C(=O)N[C@@H](CO)C(=O)N[C@H](C(=O)N[C@@H](C)C(=O)N[C@H](C(=O)N[C@@H](CC(C)C)C(=O)NCC(=O)N[C@@H](CCCNC(=N)N)C(=O)N[C@@H](CC(C)C)C(=O)N[C@@H](CO)C(=O)N[C@@H](CCC(N)=O)C(=O)N[C@@H](CCC(=O)O)C(=O)N[C@@H](CC(C)C)C(=O)N[C@@H](Cc1c[nH]cn1)C(=O)N[C@@H](CCC(=O)O)C(=O)N[C@@H](CC(C)C)C(=O)N[C@@H](CCC(N)=O)C(=O)N[C@H](C(=O)N[C@@H](Cc1ccc(O)cc1)C(=O)N1CCC[C@H]1C(=O)N1CCC[C@H]1C(=O)N[C@H](C(=O)N[C@@H](CCC(=O)O)C(=O)N[C@H](C(=O)NCC(=O)N[C@@H](CO)C(=O)N[C@@H](CCC(N)=O)C(=O)N[C@H](C(=O)N[C@@H](Cc1ccc(O)cc1)C(N)=O)[C@@H](C)O)[C@@H](C)O)[C@@H](C)O)[C@@H](C)O)C(C)C)[C@@H](C)O) [[N-terminal(C20 diacid-gGlu), des1, 4G, 9V, 15Q, 21Q, 23Y, 25P, 30S, 31Q, 32T, 33Y]mimylin] |
| 37 | 77 | {C20 diacid-γGlu}-ASGLSTAVLGRLSQELHELQTYPRTETGSATY-NH2 (SMILES CC(C)C[C@H](NC(=O)CNC(=O)[C@H](CO)NC(=O)[C@H](C)NC(=O)CC[C@H](NC(=O)CCCCCCCCCCCCCCCCCCC(=O)O)C(=O)O)C(=O)N[C@@H](CO)C(=O)N[C@H](C(=O)N[C@@H](C)C(=O)N[C@H](C(=O)N[C@@H](CC(C)C)C(=O)NCC(=O)N[C@@H](CCCNC(=N)N)C(=O)N[C@@H](CC(C)C)C(=O)N[C@@H](CO)C(=O)N[C@@H](CCC(N)=O)C(=O)N[C@@H](CCC(=O)O)C(=O)N[C@@H](CC(C)C)C(=O)N[C@@H](Cc1c[nH]cn1)C(=O)N[C@@H](CCC(=O)O)C(=O)N[C@@H](CC(C)C)C(=O)N[C@@H](CCC(N)=O)C(=O)N[C@H](C(=O)N[C@@H](Cc1ccc(O)cc1)C(=O)N1CCC[C@H]1C(=O)N[C@@H](CCCNC(=N)N)C(=O)N[C@H](C(=O)N[C@@H](CCC(=O)O)C(=O)N[C@H](C(=O)NCC(=O)N[C@@H](CO)C(=O)N[C@@H](C)C(=O)N[C@H](C(=O)N[C@@H](Cc1ccc(O)cc1)C(N)=O)[C@@H](C)O)[C@@H](C)O)[C@@H](C)O)[C@@H](C)O)C(C)C)[C@@H](C)O) [[N-terminal(C20 diacid-gGlu), des1, 4G, 9V, 15Q, 21Q, 23Y, 30S, 31A, 32T, 33Y]mimylin] |

Further lines, the binder ahead of its results:

| Binder | hCTR funct. EC50 (pM), tested with HSA [1] [pM] | hAmylin-R funct. EC50 (pM), tested with HSA [2] [pM] |
| --- | --- | --- |
| {C20 diacid-γGlu}-ASGLSTLVLGRLSQELHELQTYPRTETGSQTY-NH2 (SMILES CC(C)C[C@H](NC(=O)CNC(=O)[C@H](CO)NC(=O)[C@H](C)NC(=O)CC[C@H](NC(=O)CCCCCCCCCCCCCCCCCCC(=O)O)C(=O)O)C(=O)N[C@@H](CO)C(=O)N[C@H](C(=O)N[C@@H](CC(C)C)C(=O)N[C@H](C(=O)N[C@@H](CC(C)C)C(=O)NCC(=O)N[C@@H](CCCNC(=N)N)C(=O)N[C@@H](CC(C)C)C(=O)N[C@@H](CO)C(=O)N[C@@H](CCC(N)=O)C(=O)N[C@@H](CCC(=O)O)C(=O)N[C@@H](CC(C)C)C(=O)N[C@@H](Cc1c[nH]cn1)C(=O)N[C@@H](CCC(=O)O)C(=O)N[C@@H](CC(C)C)C(=O)N[C@@H](CCC(N)=O)C(=O)N[C@H](C(=O)N[C@@H](Cc1ccc(O)cc1)C(=O)N1CCC[C@H]1C(=O)N[C@@H](CCCNC(=N)N)C(=O)N[C@H](C(=O)N[C@@H](CCC(=O)O)C(=O)N[C@H](C(=O)NCC(=O)N[C@@H](CO)C(=O)N[C@@H](CCC(N)=O)C(=O)N[C@H](C(=O)N[C@@H](Cc1ccc(O)cc1)C(N)=O)[C@@H](C)O)[C@@H](C)O)[C@@H](C)O)[C@@H](C)O)C(C)C)[C@@H](C)O) [[N-terminal(C20 diacid-gGlu), des1, 4G, 8L, 9V, 15Q, 21Q, 23Y, 30S, 31Q, 32T, 33Y]mimylin] | 142 | 223 |
| {C20 diacid-γGlu}-LSGLSTAVLGRLSQELHELQTYPRTETGSQTY-NH2 (SMILES CC(C)C[C@H](NC(=O)CC[C@H](NC(=O)CCCCCCCCCCCCCCCCCCC(=O)O)C(=O)O)C(=O)N[C@@H](CO)C(=O)NCC(=O)N[C@@H](CC(C)C)C(=O)N[C@@H](CO)C(=O)N[C@H](C(=O)N[C@@H](C)C(=O)N[C@H](C(=O)N[C@@H](CC(C)C)C(=O)NCC(=O)N[C@@H](CCCNC(=N)N)C(=O)N[C@@H](CC(C)C)C(=O)N[C@@H](CO)C(=O)N[C@@H](CCC(N)=O)C(=O)N[C@@H](CCC(=O)O)C(=O)N[C@@H](CC(C)C)C(=O)N[C@@H](Cc1c[nH]cn1)C(=O)N[C@@H](CCC(=O)O)C(=O)N[C@@H](CC(C)C)C(=O)N[C@@H](CCC(N)=O)C(=O)N[C@H](C(=O)N[C@@H](Cc1ccc(O)cc1)C(=O)N1CCC[C@H]1C(=O)N[C@@H](CCCNC(=N)N)C(=O)N[C@H](C(=O)N[C@@H](CCC(=O)O)C(=O)N[C@H](C(=O)NCC(=O)N[C@@H](CO)C(=O)N[C@@H](CCC(N)=O)C(=O)N[C@H](C(=O)N[C@@H](Cc1ccc(O)cc1)C(N)=O)[C@@H](C)O)[C@@H](C)O)[C@@H](C)O)[C@@H](C)O)C(C)C)[C@@H](C)O) [[N-terminal(C20 diacid-gGlu), des1, 2L, 4G, 9V, 15Q, 21Q, 23Y, 30S, 31Q, 32T, 33Y]mimylin] | 73 | 140 |
| {C20 diacid-γGlu}-LSGLSTAVLGRLSAELHELSTYPRTETGSGTY-NH2 (SMILES CC(C)C[C@H](NC(=O)CC[C@H](NC(=O)CCCCCCCCCCCCCCCCCCC(=O)O)C(=O)O)C(=O)N[C@@H](CO)C(=O)NCC(=O)N[C@@H](CC(C)C)C(=O)N[C@@H](CO)C(=O)N[C@H](C(=O)N[C@@H](C)C(=O)N[C@H](C(=O)N[C@@H](CC(C)C)C(=O)NCC(=O)N[C@@H](CCCNC(=N)N)C(=O)N[C@@H](CC(C)C)C(=O)N[C@@H](CO)C(=O)N[C@@H](C)C(=O)N[C@@H](CCC(=O)O)C(=O)N[C@@H](CC(C)C)C(=O)N[C@@H](Cc1c[nH]cn1)C(=O)N[C@@H](CCC(=O)O)C(=O)N[C@@H](CC(C)C)C(=O)N[C@@H](CO)C(=O)N[C@H](C(=O)N[C@@H](Cc1ccc(O)cc1)C(=O)N1CCC[C@H]1C(=O)N[C@@H](CCCNC(=N)N)C(=O)N[C@H](C(=O)N[C@@H](CCC(=O)O)C(=O)N[C@H](C(=O)NCC(=O)N[C@@H](CO)C(=O)NCC(=O)N[C@H](C(=O)N[C@@H](Cc1ccc(O)cc1)C(N)=O)[C@@H](C)O)[C@@H](C)O)[C@@H](C)O)[C@@H](C)O)C(C)C)[C@@H](C)O) [[N-terminal(C20 diacid-gGlu), des1, 2L, 4G, 9V, 21S, 23Y, 30S, 31G, 32T, 33Y]mimylin] | 34 | 64 |
| {C18 diacid-γGlu-AEEA-AEEA}-ASGLSTAVLGRLSQELHELQTYPRTETGSGTY-NH2 (SMILES CC(C)C[C@H](NC(=O)CNC(=O)[C@H](CO)NC(=O)[C@H](C)NC(=O)COCCOCCNC(=O)COCCOCCNC(=O)CC[C@H](NC(=O)CCCCCCCCCCCCCCCCC(=O)O)C(=O)O)C(=O)N[C@@H](CO)C(=O)N[C@H](C(=O)N[C@@H](C)C(=O)N[C@H](C(=O)N[C@@H](CC(C)C)C(=O)NCC(=O)N[C@@H](CCCNC(=N)N)C(=O)N[C@@H](CC(C)C)C(=O)N[C@@H](CO)C(=O)N[C@@H](CCC(N)=O)C(=O)N[C@@H](CCC(=O)O)C(=O)N[C@@H](CC(C)C)C(=O)N[C@@H](Cc1c[nH]cn1)C(=O)N[C@@H](CCC(=O)O)C(=O)N[C@@H](CC(C)C)C(=O)N[C@@H](CCC(N)=O)C(=O)N[C@H](C(=O)N[C@@H](Cc1ccc(O)cc1)C(=O)N1CCC[C@H]1C(=O)N[C@@H](CCCNC(=N)N)C(=O)N[C@H](C(=O)N[C@@H](CCC(=O)O)C(=O)N[C@H](C(=O)NCC(=O)N[C@@H](CO)C(=O)NCC(=O)N[C@H](C(=O)N[C@@H](Cc1ccc(O)cc1)C(N)=O)[C@@H](C)O)[C@@H](C)O)[C@@H](C)O)[C@@H](C)O)C(C)C)[C@@H](C)O) [[N-terminal(C18 diacid-gGlu-2xOEG), des1, 4G, 9V, 15Q, 21Q, 23Y, 30S, 31G, 32T, 33Y]mimylin] | 38 | 80 |
